Results as given in paper PMC12264150, “A chromatin-remodeling-independent role for ATRX in protecting centromeric cohesion” (The EMBO Journal, 2025).
Residue numbers refer to the chain shown, from its start.

T1: GST-Pds5B (1–300) (UniProt Q9NTI5 1-300)
T1 construct: Pds5B residues 1–300, in pGEX-4T1; also called GST-fused Pds5B (1–300) fragment; GST-Pds5B (1–300) WT; source: E. coli BL21 (DE3), purified (Glutathione Sepharose 4B); not shown: GST, N-terminal, kept
T1 sequence (looked up): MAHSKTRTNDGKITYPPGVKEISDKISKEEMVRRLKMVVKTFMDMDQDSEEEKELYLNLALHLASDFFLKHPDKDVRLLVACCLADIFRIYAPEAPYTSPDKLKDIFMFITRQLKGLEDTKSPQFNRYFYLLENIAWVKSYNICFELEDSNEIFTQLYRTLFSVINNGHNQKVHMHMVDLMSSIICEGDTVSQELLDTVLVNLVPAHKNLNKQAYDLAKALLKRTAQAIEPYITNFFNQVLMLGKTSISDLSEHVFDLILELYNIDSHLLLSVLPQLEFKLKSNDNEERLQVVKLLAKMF

T2: MBP-Pds5B (1–300) (UniProt Q9NTI5 1-300)
T2 construct: Pds5B residues 1–300, in pMAL-C2E; also called recombinant MBP-Pds5B (1–300); purified MBP-Pds5B; source: E. coli BL21 (DE3), purified (Amylose Resin); not shown: MBP, N-terminal, kept
T2 sequence (looked up): T1 sequence (looked up)

B1: GFP-ATRX (1394–1443)-2xStrep (domain or fragment, UniProt P46100 1394-1443, looked up)
chain: SESEDEQRPRTRSAKKAELEENQRSYKQKKKRRRIKVQEDSSSENKSNSE
notes: source: E. coli BL21 (DE3), purified (Strep-Tactin Superflow); not shown: GFP, N-terminal, kept; 2xStrep, C-terminal, kept
B2: GFP-ATRX (1394–1443)-2xStrep E1413A (domain or fragment, UniProt P46100 1394-1443, looked up)
chain: B1 chain with E20A
notes: as for B1
B3: GFP-ATRX (1394–1443)-2xStrep N1415A (domain or fragment, UniProt P46100 1394-1443, looked up)
chain: B1 chain with N22A
notes: as for B1
B4: GFP-ATRX (1394–1443)-2xStrep K1420A (domain or fragment, UniProt P46100 1394-1443, looked up)
chain: B1 chain with K27A
notes: as for B1
B5: GFP-ATRX (1394–1443)-2xStrep E1414A (domain or fragment, UniProt P46100 1394-1443, looked up)
chain: B1 chain with E21A
notes: as for B1
B6: GFP-ATRX (1394–1443)-2xStrep R1417A (domain or fragment, UniProt P46100 1394-1443, looked up)
chain: B1 chain with R24A
notes: as for B1
B7: GFP-ATRX (1394–1443)-2xStrep S1418A (domain or fragment, UniProt P46100 1394-1443, looked up)
chain: B1 chain with S25A
notes: as for B1
B8: GFP-ATRX (1394–1443)-2xStrep Q1416A (domain or fragment, UniProt P46100 1394-1443, looked up)
chain: B1 chain with Q23A
notes: as for B1
B9: GFP-ATRX (1394–1443)-2xStrep Q1421A (domain or fragment, UniProt P46100 1394-1443, looked up)
chain: B1 chain with Q28A
notes: as for B1
B10: Wapl (1–28)-GST (domain or fragment, UniProt Q7Z5K2 1-28, looked up)
chain: MTSRFGKTYSRKGGNGSSKFDEVFSNKR
notes: Wapl residues 1–28, in pETGEX-CT; also called short Wapl fragment (residues 1–28) containing the YSR motif; Wapl (1–28)-GST WT; source: E. coli BL21 (DE3), purified (Glutathione Sepharose 4B); not shown: GST, C-terminal, kept

Each binder was assayed against T1, GST-Pds5B (1–300) (assay: pull-down; recombinant GFP-ATRX (1394–1443)-2xStrep (wild-type or mutants) pulled down with GST or GST-Pds5B (1–300); immunoblot for GFP and CBB). Conditions: both partners purified.

Binding result, binds:
B1
B2
B3
B4
B5
B6
B7
B8
B9

These binders were tested against T2, MBP-Pds5B (1–300) (assay: pull-down; competitive: purified MBP-Pds5B (1–300) mixed with GFP-2xStrep or increasing amounts of GFP-ATRX (1394–1443)-2xStrep (WT or Y1419A), pulled down with Wapl (1–28)-GST). Conditions: both partners purified.

Binding result, binds:
B10
B1
